Laboratory results: patent publication US8530213B2, “Compositions and methods for using NADH oxidases” (Georgia Tech Research Corporation, priority 2009, dated 2013)

How the values were obtained:
[1] = NOX5 mutants assayed at the cell lysate level, NADH activity; type: biochemical
Protocol: (§1) Standard assays were performed at 25° C. in 100 mM TEA buffer (pH 7.5) with 5 mM DTT in cuvettes with either a 1 cm or 1 mm path length, depending on the concentration of substrate. Initial activity was measured by following the absorbance change using a Beckman Coulter DU 800 UV/Vis spectrophotometer at 340 nm. Activity of the enzyme was calculated using an extinction coefficient of NAD(P)H, ε, as 6.22 mM^−1 cm^−1. Unless otherwise noted, a substrate concentration of 0.2 mM NADPH was used for assays. 1 unit (U) of activity is defined as […].
(§2) Single mutations were done on residues G178 and L179 into K, R and K, R, H respectively, and double mutations were also investigated with different combinations of the single mutations. The mutation of G178H was excluded due to the fact that the enzyme would then have two histidines next to each other, creating steric hindrance in the binding pocket. The resulting mutants were expressed on small scale and assayed at the cell lysate level.

pH activity profile = type: biochemical; details: 25° C., 100 mM buffers
Protocol: as §1
Enzyme pH activity profiles were obtained at 25° C. using 100 mM buffers with the following salts: sodium citrate from pH 4.0 to pH 6.5; sodium phosphate from pH 6.0 to pH 8.0; TEA from pH 7.0 to pH 8.0; Tris-HCl from pH 7.0 to pH 9.0; glycine from pH 9.0 to pH 10.0.

[2] = Temperature stability (30 minutes incubation, assayed at 25° C.); type: physicochemical
Protocol: Temperature stability was studied by incubating the enzyme at various temperatures for 30 minutes. The enzyme solution was then cooled down and assayed at 25° C. This study covered a temperature range of 15° C. to 55° C.

[3] = NOX5 mutants assayed at the cell lysate level, NADPH activity; type: biochemical
Protocol: as §1, §2

[4] = Kinetic parameters of purified NADH oxidases, substrate NADH; type: biochemical; details: purified enzyme, excess of oxygen
Protocol: as §1
[…] This was conducted with an excess of oxygen present in the system. The reaction was initiated by mixing two separate 2× solutions of each the substrate and enzyme. The specific activity was measured, and the kinetic parameters were calculated from that data.
The data was fitted with four different models: non-linear Michaelis-Menten, Lineweaver-Burk, Eadie-Hofstee and Hanes. Through non-linear fitting, kcat and KM of the wild type were measured to be 211.6 s^−1 and 50.2 μM, respectively with an R^2 of 0.998. (FIG. 5).

[5] = Temperature activity profile; type: biochemical
Protocol: as §1
Temperature dependent activity was studied by incubating the enzyme at different temperatures. After one minute of incubation, the standard assay was carried out. A temperature range of 10 to 55° C. was chosen for this study.

[6] = Total turnover number (TTN), NADH; type: biochemical; design: key: TTN = change in NAD(P)H concentration / amount of enzyme
Protocol: Standard kinetic assays were performed with small amounts of enzyme. Assays were carried out for two to three hours until there was no more enzymatic conversion of the substrate.
Total turnover number (TTN) is a measurement of catalyst productivity. For biocatalysts, TTN is defined as the total amount of product produced over the lifetime of an enzyme. […] […] (data not shown).
This experiment was repeated to see if the presence of reducing agents had any effect on the total turnover number. The stock solution of enzyme was dialyzed against 250 mL of 10 mM Tris-HCl (pH 7.5) for two hours. The solution was then exchanged and dialyzed for an additional 2 hours. The TTN was then measured with the dialyzed enzyme with and without reducing agents. DTT and β-mercaptoethanol (β-ME) were used at a concentration of 5 mM. The TTN for the sample with no reducing agents, DTT and β-ME were 128,000, 168,000 and 107,000, respectively.

[7] = Amplex Red assay of H2O2 produced during turnover; type: biochemical; details: 50 mM sodium phosphate buffer (pH 7.4)
Protocol: An Amplex Red Hydrogen Peroxide/Peroxidase Assay Kit (Invitrogen) was used to determine the amount of hydrogen peroxide (H2O2) produced during turnover. Various amounts of substrates were reacted and assayed to detect the presence of H2O2. The reactions were carried out in the provided 50 mM sodium phosphate buffer (pH 7.4). Standards for the calibration curve were made with the same reaction buffer.
To determine whether NOX5 is a water or hydrogen peroxide producing enzyme, an amplex red assay was performed. The presence of H2O2 can be confirmed by incubating the standard assay mixture with amplex red and peroxidase. Produced resorufin can be detected using a fluorescence spectroscopy analysis.

B1: NOX5: NADH oxidase V from Lactobacillus plantarum, wild type, 49 kDa, SEQ ID NO: 1 (protein, listed as Lactobacillus plantarum)
chain: MKVIVIGCTHAGTAAVNQILASNPDTEVTIYERNDNVSFLSCGIALYLGGQVADPQGLFYSSPEQLAKLGATVHMQHDVTDVNTDKHEITVTDLKTGESKTDHYDKLVVTTGSWPVIPPIDGIDSPNVYLCKNWTHAQNLWEAAKPAKRVIVIGGGYIGTELVEAYQKQGKEVTLIDGLPRILNKYLDKEFTDRVEQDFVDHGIKMALNQMVQGFSDDGKEVTVKTDKGSYTADMAILCVGFRPNTGLLKGKVDMNANGSIKTNDYMQTSDPDIYGAGDSVAVHYNPTKKDAYIPLATNAVRQGTLVGLNIFKPTRKYMGTQSTSGLMLFGQTIVSSGMTLEHAQAENVPAAAVTFEDNYRPEFMPTTKPVLMQLVYNPETREILGAQFMSEHDVSQSANVISVMIQNHNTIDDLGFVDMFFQPIYDRPFNYLNLLGQAAIAHAAEAVTE
[1]
  NADH activity: 10.0 U/mg
pH activity profile
  pH of maximum activity: 7.5
[2]
  Enthalpy of deactivation, ΔH: 1.19 kcal/mol
[2]; 55° C.
  activity at 55° C.: inactive
[2]; 30 minutes incubation
  T50^30, temperature that exhibited half of the original activity: 45 °C
[3]
  NADPH activity: 0.00 U/mg
[4]
  Km: 50.2 µM
  kcat, NADH: 211.6 s⁻¹
[5]; Arrhenius model
  activation energy, Ea: 7.82 kcal/mol
  deactivation energy, Ed: -22.4 kcal/mol
[5]; range 10 to 55° C., one minute of incubation
  temperature of maximum instantaneous activity: 40 °C
[6]; 5 mM DTT, 25° C., listed as NOX5 WT
  TTN with DTT, NADH: 168,000
[6]; 5 mM β-ME, dialyzed enzyme
  TTN with β-mercaptoethanol (β-ME): 107,000
[6]; no reducing agents
  TTN, NADH: 128,000
[7]
  H2O2 produced, ratio of NADH: 2.63%
